# Test results reported in publication PMC3506534, “LL-37 Induces Polymerization and Bundling of Actin and Affects Actin Structure” (PLoS ONE, 2012).
# B1: scrambled LL-37 (peptide)
# peptide: GLKLRFEFSKIKGEFLKTPEVRFRDIKLKDNRISVQR
# notes: scrambled order of the residues of LL-37; same net number of positive charges; also called sLL-37; source: bought: Genemed Synthesis Inc; purified by HPLC, purity greater than 90%
# Molecular target: rabbit skeletal muscle α-actin (rabbit, UniProt P68135 1-377)
# Assay: SPR; BIACORE 3000; actin (10 µg/ml) amine-coupled to a CM5 chip, 1500-1800 RU; running buffer 10 mM HEPES pH 7.4, 150 mM NaCl, 0.005% tween 20; 25°C, 40 µl/min; LL-37 0-500 nM, 1:1 Langmuir model; sLL-37 0-2500 nM, steady state affinity model
# Details: both partners purified
binder,measurement,value
B1,Kd,138 µM
